What was measured:
[1] = target: 重组SARS-CoV-2刺突蛋白胞外区 (extra cellular domain of spike protein, S-ECD) (SARS-CoV-2, UniProt P0DTC2 14-1213); test: SPR, Biacore 8K, S-ECD immobilised on a CM5 chip, antibody injected at 125nM~7.8nM
[2] = target: 重组SARS-CoV-2刺突蛋白胞外区 (extra cellular domain of spike protein, S-ECD) (SARS-CoV-2, UniProt P0DTC2 14-1213); test: as above; remark: listed apart in the source
[3] = target: SARS-CoV-2 S蛋白 (on live virus, 江苏分离株 BetaCoV/JS03/human/2020) (SARS-CoV-2, UniProt P0DTC2 14-1273); test: cell-based or functional assay

B1: FC11 (antibody, V domains shown)
VH: EVQLLESGGGVVQPGRSLRLSCAASGFTFSYYGMHWVRQAPGTGLEWVAVISYDGSNEYYADSVKGRFTISRDNSKNTLYLQMNSLRAEDTAVYYCAKAMFLGDSSGLTGLDMDVWGQGTTVTVSS
VL: DIELTQSPGTLSLSPGERATLSCRASQSVSSYLAWYQQKPGQAPRLLIYDASNRATGIPARFSGSGSGTDFTLTISSLEPEDFALYYCQQRGNWPPTFGGGTKLEIK
notes: also called FC11抗体
Kd [1]: 0.5 nM

B2: FC08 (antibody, V domains shown)
VH: VQLLQQSGAEVKKPGSSVKVSCKASGGTFSSYAISWVRQAPGQGLEWMGGIIPILGIANYAQKFQGRVTITADKSTSTAYMELSSLRSEDTAVYYCVRERGYSGYGAAYYFDYWGQGTLVTVSS
VL: QSVLTQPPSVSGAPGQRVTISCTGSSSNIGAGYDVHWYQQLPGTAPKLLIYGNSNRPSGVPDRFSGSKSGTSASLAITGLQAEDEADYYCQSYDSSLSGSVFGGGTKLTVL
Kd [2]: 0.8 nM

B3: FC05 (antibody, V domains shown)
VH: VQLLEQSGAEVKKPGASVRVSCKVSGYTLPEVAMHWVRQAPGKGLEWMGGFDPEDGETIYAQKFQGRVTMTEDTSTDTAYMELSSLRSEDTAVYYCATTTPFSSSFWFDPWGQGTLVTVSS
VL: QSVLTQAPSVSGAPGQKVTISCSGSSSNIGNNYVSWYQQLPGTAPKLLIYDNNKRPSGIPDRFSGSKSGTSATLGITGLQTGDEADYYCGTWDSSLSAVVFGGGTKLTVL
IC50 (体外中和实验, live SARS-CoV-2 on Vero E6 cells, cytopathic effect) [3]: 0.142 µg/mL

Source: patent publication CN111662379A (JIANGSU DISEASE CONTROL AND PREVENTION CENTER JIANGSU …, dated 2020)
